The results in this text go back to US20240124560A1.

One assay addresses 2F5-specific peptide. The assay can be described thus: ELISA on peptide MPER (659-671), antibody titrated.
Assay [1] concerns the target HIV-1 Env of isolate COT6, mutant D674E (HIV-1). The assay can be described thus: cell-based or functional assay.
Assay [2] concerns the target HIV-1 Env of isolate COT6, mutant D674T (HIV-1). The assay can be described thus: cell-based or functional assay.
The target in assay [3] is HIV-1 Env of isolate COT6 (wild-type) (HIV-1). The assay can be described thus: cell-based or functional assay.

Turning to 2F5 (antibody), the concentration giving a half-maximal response (EC50 (read off the curve)) with 2F5-specific peptide stood at 6 ng/mL.
For 10E8 (antibody), the Fold increase in IC50 relative to wild-type COT6 was 17.5 fold in assay [1] and 36 fold in assay [2]. Besides, the Fold increase in IC50 (wild-type COT6, the reference) in assay [3] was found to be 1 fold.
